Patent US20160040149A1, “Compositions Having Dicamba Decarboxylase Activity and Methods of Use” (priority 2013, published 2016)

B1: 356 (protein)
chain: MAQGKVALEEHFAIPETLQDSAGFVPGDYWKELQHRLLDIQDTRLKLMDAHGIETMILSLAAPAVQAIPDRRKAIEIARRANDMLAEECAKRPDRFLAFAALPLQDPDAATEELQRCVNDLGFVGALVNGFSVEGDGQTPLYYDLPQYRPFWGEVEKLDVPFYLHPRNPLPQDSRIYDGHPWLLGPTWAFAQETAVHALRLMASGLFDEHPRLNIILGHLGEGLPYMMYRIDHRIAWVHEPPRYPAKRRFMDYFNENFHITTSGNFRTQTLIDAILEIGADRILFSTDWPFENIDHAADWFNATSIAEADRLKIGRTNARRLFKLDGD
modifications: Dicamba decarboxylase variant
B2: 361 (protein)
chain: MAQGKVALEEHFAIPETLQDSAGFVPGDYWKELQHRLLDIQDTRLKLMDAHGIETMILSLAAPAVQAIPDRRKAIEIARRANDFLAEECAKRPDRFLAFAALPLQDPDAATEELQRCVNDLGFVGALVNGFSQEGDGQTPLYYDLPQYRPFWGEVEKLDVPFYLHPRNPLPQDSRIYDGHPWLLGPTWAFAQETAVHALRLMASGLFDEHPRLNIILGHMGEGLPYMMYRIDHRIAWVKLPPRYPAKRRFMDYFNENFHITTSGNFRTQTLIDAILEIGADRILFSTDWPFENIDHAADWFNATSIAEADRLKIGRTNARRLFKLDGA
modifications: Dicamba decarboxylase variant
B3: 363 (protein)
chain: MAQGKVALEEHFAIPETLQDSAGFVPGDYWKELQHRLLDIQDTRLKLMDAHGIETMILSLAAPGVQAIPDRRKAIEIARRANDILAEECAKRPDRFLAFAALPLQDPDAATEELQRCVNDLGFVGALVNGFSQEGDGQTPLYYDLPQYRPFWGEVEKLDVPFYLHPRNPLPQDSRIYDGHPWLLGPTWAFAQETAVHALRLMASGLFDEHPRLNIILGHMGEGLPYMMYRIDHRIAWVQEPPRYPAKRRFMDYFNENFHITTSGNFRTQTLIDAILEIGADRILFSTDWPFENIDHAADWFNATSIAEADRVKIGRTNARRLFKLDGA
modifications: Dicamba decarboxylase variant
B4: 367 (protein)
chain: MAQGKVALEEHFAIPETLQDSAGFVPGDYWKELQHRLLDIQDTRLKLMDAHGIETMILSLAAPAVQAIPDRRKAIEIARRANDFLAEECAKRPDRFLAFAALPLQDPDAATEELQRTVNDLGFVGALVNGFSVEGDGQTPLYYDLPQYRPFWGEVEKLDVPFYLHPRNPLPQDSRIYDGHPWLLGPTWAFAQETAVHALRLMASGLFDEHPRLNIILGHMGEGLPYMMYRIDHRIAWVKLPPRYPAKRRFMDYFNENFHITTSGNFRTQTLIDAILEIGADRILFSTDWPFENIDHAADWFNATSIAEADRVKIGRTNARRLFKLDGD
modifications: Dicamba decarboxylase variant
B5: 369 (protein)
chain: MAQGKVALEEHFAIPETLQDSAGFVPGDYWKELQHRLLDIQDTRLRLMDAHGIETMILSLAAPAVQAIPDRRKAIEIARRANDFLAEECAKRPDRFLAFAALPLQDPDAATEELQRCVNDLGFVGALVNGFSQEGDGQTPLYYDLPQYRPFWGEVEKLDVPFYLHPRNPLPQDSRIYDGHPWLLGPTWAFAQETAVHALRLMASGLFDEHPRLNIILGHMGEGLPYMMYRIDHRIAWVHEPPRYPAKRRFMDYFNENFHITTSGNFRTQTLIDAILEIGADRILFSTDWPFENIDHAADWFNATSIAEADRVKIGRTNARRLFKLDGA
modifications: Dicamba decarboxylase variant
B6: 365 (protein)
chain: MAQGKVALEEHFAIPETLQDSAGFVPGDYWKELQHRLLDIQDTRLKLMDAHGIETMILSLAAPAVQAIPDRRKAIEIARRANDFLAEECAKRPDRFLAFAALPLQDPDAATEELQRCVNDLGFVGALVNGFSQEGDGQTPLYYDLPQYRPFWGEVEKLDVPFYLHPRNPLPQDSRIYDGHPWLLGPTWAFAQETAVHALRLMASGLFDEHPRLNIILGHMGEGLPYMMYRIDHRIAWVHEPPRYPAKRRFMDYFNENFHITTSGNFRTQTLIDAILEIGADRILFSTDWPFENIDHAADWFNATSIAEADRVKIGRTNARRLFKLDGA
modifications: Dicamba decarboxylase variant
B7: 360 (protein)
chain: MAQGKVALEEHFAIPETLQDSAGFVPGDYWKELQHRLLDIQDTRLKLMDAHGIETMILSLAAPAVQAIPDRRQAIEIARRANDFLAEECAKRPDRFLAFAALPLQDPDAATEELQRCVNDLGFVGALVNGFSVEGDGQTPLYYDLPQYRPFWGEVEKLDVPFYLHPRNPLPQDSRIYDGHPWLLGPTWAFAQETAVHALRLMASGLFDEHPRLNIILGHLGEGLPYMMYRIDHRIAWVKLPPRYPAKRRFMDYFNENFHITTSGNFRTQTLIDAILEIGADRILFSTDWPFENIDHAADWFNATSIAEADRLKIGRTNARRLFKLDGA
modifications: Dicamba decarboxylase variant
B8: 357 (protein)
chain: MAQGKVALEEHFAIPETLQDSAGFVPGDYWKELQHRLLDIQDTRLKLMDAHGIETMILSLAAPAVQAIPDRRKAIEIARRANDFLAEECAKRPDRFLAFAALPLQDPDAASEELQRCVNDLGFVGALVNGFSVEGDGQTPLYYDLPQYRPFWGEVEKLDVPFYLHPRNPLPQDSRIYDGHPWLLGPTWAFAQETAVHALRLMASGLFDEHPRLNIILGHMGEGLPYMMYRIDHRIAWVHEPPRYPAKRRFMDYFNENFHITTSGNFRTQTLIDAILEIGADRILFSTDWPFENIDHAADWFNATSIAEADRVKIGRTNARRLFKLDLD
modifications: Dicamba decarboxylase variant
B9: 362 (protein)
chain: MAQGKVALEEHFAIPETLQDSAGFVPGDYWKELQHRLLDIQDTRLKLMDAHGIETMILSLAAPAVQAIPDRRKAIEIARRANDMLAEECAKRPDRFLAFAALPLQDPDAATEELQRCVNDLGFVGALVNGFSQEGDGQTPLYYDLPQYRPFWGEVEKLDVPFYLHPRNPLPQDSRIYDGHPWLLGPTWAFAQETAVHALRLMASGLFDEHPRLNIILGHMGEGLPYMMYRIDHRIAWVHEPPRYPAKRRFMDYFNENFHITTSGNFRTQTLIDAILEIGADRILFSTDWPFENIDHAADWFNATSIAEADRVKIGRTNARRLFKLDLD
modifications: Dicamba decarboxylase variant
B10: 358 (protein)
chain: MAQGKVALEEHFAIPETLQDSAGFVPGDYWKELQHRLLDIQDTRLKLMDAHGIETMILSLAAPAVQAIPDRRKAIEIARRANDFLAEECAKRPDRFLAFAALPLQDPDAATEELQRCVNDLGFVGALVNGFSVEGDGQTPLYYDLPQYRPFWGEVEKLDVPFYLHPRNPLPQDSRIYDGHPWLLGPTWAFAQETAVHALRLMASGLFDEHPRLNIILGHMGEGLPYMMYRIDHRIAWVKLPPRYPAKRRFMDYFNENFHITTSGNFRTQTLIDAILEIGADRILFSTDWPFENIDHATAWFNATSIAEADRLKIGRTNARRLFKLDGA
modifications: Dicamba decarboxylase variant
B11: 368 (protein)
chain: MAQGKVALEEHFAIPETLQDSAGFVPGDYWKELQHRLLDIQDTRLKLMDAHGIETMILSLAAPGVQAIPDRRKAIEIARRANDMLAEECAKRPDRFLAFAALPLQDVDAATEELQRCVNDLGFVGALVNGFSVEGDGQTPLYYDLPQYRPFWGEVEKLDVPFYLHPRNPLPQDSRIYDGHPWLLGPTWAFAQETAVHALRLMASGLFDEHPRLNIILGHMGEGLPYMMYRIDHRIAWVHEPPRYPAKRRFMDYFLENFHITTSGNFRTQTLIDAILEIGADRILFSTDWPFENIDHAADWFNATSIAEADRLKIGRTNARRLFKLDGD
modifications: Dicamba decarboxylase variant
B12: 370 (protein)
chain: MAQGKVALEEHFAIPETLQDSAGFVPGDYWKELQHRLLDIQDTRLKLMDAHGIETMILSLAAPAVQAIPDRRKAIEIARRANDFLAEECAKRPDRFLAFAALPLQDVDAASEELQRCVNDLGFVGALVNGFSVEGDGQTPLYYDLPQYRPFWGEVEKLDVPFYLHPRNPLPQDSRIYDGHPWLLGPTWAFAQETAVHALRLMASGLFDEHPRLNIILGHMGEGLPYMMYRIDHRIAWVKLPPRYPAKRRFMDYFNENFHITTSGNFRTQTLIDAILEIGADRILFSTDWPFENIDHAADWFNATSIAEADRLKIGRTNARRLFKLDGD
modifications: Dicamba decarboxylase variant
B13: 359 (protein)
chain: MAQGKVALEEHFAIPETLNDSAGFVPGDYWKELQHRLLDIQDTRLKLMDAHGIETMILSLAAPAVQAIPDRRKAIEIARRANDFLAEECAKRPDRFLAFAALPLQDPDAATEELQRCVNDLGFVGALVNGFSQEGDGQTPLYYDLPQYRPFWGEVEKLDVPFYLHPRNPLPQDSRIYDGHPWLLGPTWAFAQETAVHALRLMASGLFDEHPRLNIILGHLGEGLPYMMYRIDHRIAWVKLPPRYPAKRRFMDYFNENFHITTSGNFRTQTLIDAILEIGADRILFSTDWPFENIDHAADWFNETSIAEADRVKIGRTNARRLFKLDGA
modifications: Dicamba decarboxylase variant
B14: 366 (protein)
chain: MAQGKVALEEHFAIPETLQDSAGFVPGDYWKELQHRLLDIQDTRLKLMDAHGIETMILSLAAPAVQAIPDRVQAIEIARRANDFLAEECAKRPDRFLAFAALPLQDPDAATEELQRCVNDLGFVGALVNGFSQEGDGQTPLYYDLPQYRPFWGEVEKLDVPFYLHPRNPLPQDSRIYDGHPWLLGPTWAFAQETAVHALRLMASGLFDEHPRLNIILGHMGEGLPYMMYRIDHRIAWVKLPPRYPAKRRFMDYFNENFHITTSGNFRTQTLIDAILEIGADRILFSTDWPFENIDHAADWFNATSIAEADRLKIGRTNARRLFKLDLD
modifications: Dicamba decarboxylase variant
B15: 364 (protein)
chain: MAQGKVALEEHFAIPETLQDSAGFVPSEYLKELQHRLLDIQDTRLKLMDAHGIETMILSLAAPAVQAIPDRRKAIEIARRANDFLAEECAKRPDRFLAFAALPLQDPDAATEELQRTVNDLGFVGALVNGFSQEGDGQTPLYYDLPQYRPFWGEVEKLDVPFYLHPRNPLPQDSRIYDGHPWLLGPTWAFAQETAVHALRLMASGLFDEHPRLNIILGHMGEGLPYMMYRIDHRIAWVKLPPRYPAKRRFMDYFNENFHITTSGNFRTQTLIDAILEIGADRILFSTDWPFENIDHAADWFNATSIAEADRVKIGRTNARRLFKLDGA
modifications: Dicamba decarboxylase variant

Experiment: DNA shuffling libraries: 14CO2 capturing assay in 384-well format, fold activity of backbone (Megatable 2)
Conditions: relative to backbone SEQ ID NO: 133 (DDEC0201)

B1 and B2 are the same in “Fold Activity” value: 1.0 fold for the first, 1.0 fold for the second.

B3 and B4 are the same in “Fold Activity” value: 0.9 fold for the first, 0.9 fold for the second.

Going from B5 to B6, the “Fold Activity” value rises from 1.1 fold to 1.6 fold.

Going from B7 to B8, the “Fold Activity” value rises from 1.1 fold to 1.4 fold.

B9 and B10 are the same in “Fold Activity” value: 0.9 fold for the first, 0.9 fold for the second.

B11 and B12 are the same in “Fold Activity” value: 0.9 fold for the first, 0.9 fold for the second.

Compared with B13, B14 is lower in “Fold Activity” value: 1.3 fold for the first, 0.9 fold for the second.

In the case of B15, the “Fold Activity” value is reported as 1.0 fold.
